Test results reported in PMC6927069.

Target: latent myostatin
Assay: BLI
Settings: second pH 7.4

- dissociation rate (koff), fold lower at pH 7.4 than at pH 5.0: approximately 20-fold
Substance: SRK-015
